Measurements taken from patent US12269859B2, “Synthetic immune receptors and methods of use thereof” (Angeles Therapeutics, Inc., priority 2016, dated 2025).

B1: 072717-G01 (protein)
chain: MALPVTALLLPLALLLHAARPLEGKPIPNPLLGLDSTGSGEDLKNVFPPEVAVFEPSKAEIAHTQKATLVCLATGFYPDHVELSWWVNGKEVHSGVCTDPQPLKEQPALNDSRYCLSSRLRVSATFWQNPRNHFRCQVQFYGLSENDEWTQDRAKPVTQIVSAEAWGRADCGITSASYHQGVLSATILYEILLGKATLYAVLVSALVLMAMVKRKDSRGRAKRSGSGATNFSLLKQAGDVEENPGPTSMALPVTALLLPLALLLHAARPEFAVQLVESGGGLVQAGDSLRLTCTASGRAFSTYFMAWFRQAPGKEREFVAGIAWSGGSTAYADSVKGRFTISRDNAKNTVYLQMNSLKSEDTAVYYCASRGIEVEEFGAWGQGTQVTVSSPGGGGSPQVQLVESGGGLVQAGGSLRLSCAASGGTLSKNTVAWFRQAPGKERGFVASITWDGRTTYYADSVKGRFTISRDNAKNTVYLQMNSLKPEDTAVYVCADLGKWPAGPADYWGQGTQVTVSSEVAALEKEVAALEKEVAALEKEVAALEKTREQKLISEEDGSGIQNPDPAVYQLRDSKSSDKSVCLFTDFDSQTNVSQSKDSDVYITDKCVLDMRSMDFKSNSAVAWSNKSDFACANAFNNSIIPEDTFFPSSDVPCDVKLVEKSFETDTNLNFQNLSVIGFRILLLKVAGFNLLMTLRLWSSRAKRSGSGVKQTLNFDLLKLAGDVESNPGPSRGHMTEYKPTVRLATRDDVPRAVRTLAAAFADYPATRHTVDPDRHIERVTELQELFLTRVGLDIGKVWVADDGAAVAVWTTPESVEAGAVFAEIGPRMAELSGSRLAAQQQMEGLLAPHRPKEPAWFLATVGVSPDHQGKGLGSAVVLPGVEAAERAGVPAFLETSAPRNLPFYERLGFTVTADVEVPEGPRTWCMTRKPGA
B2: 090116-H02 (protein)
chain: MALPVTALLLPLALLLHAARPLEGKPIPNPLLGLDSTGSGEDLKNVFPPEVAVFEPSKAEIAHTQKATLVCLATGFYPDHVELSWWVNGKEVHSGVCTDPQPLKEQPALNDSRYCLSSRLRVSATFWQNPRNHFRCQVQFYGLSENDEWTQDRAKPVTQIVSAEAWGRADCGITSASYHQGVLSATILYEILLGKATLYAVLVSALVLMAMVKRKDSRGRAKRSGSGATNFSLLKQAGDVEENPGPTSMALPVTALLLPLALLLHAARPDIQMTQSTSSLSASLGDRVTISCSASQGINNYLNWYQQKPDGTVELLIYYTSTLQSGVPSRFSGSGSGTDYSLTISNLEPEDIGTYYCQQYSKLPRTFGGGTKLEIKGGGGSGGGGSGGGGSQVQLQQSGSELMMPGASVKISCKATGYTFSNYWIEWVKQRPGHGLEWIGEILPGTGRTIYNEKFKGKATFTADISSNTVQMQLSSLTSEDSAVYYCARRDYYGNFYYAMDYWGQGTSVTVSSTREQKLISEEDGSGIQNPDPAVYQLRDSKSSDKSVCLFTDFDSQTNVSQSKDSDVYITDKCVLDMRSMDFKSNSAVAWSNKSDFACANAFNNSIIPEDTFFPSSDVPCDVKLVEKSFETDTNLNFQNLSVIGFRILLLKVAGFNLLMTLRLWSSRAKRSGSGVKQTLNFDLLKLAGDVESNPGPSRGHMTEYKPTVRLATRDDVPRAVRTLAAAFADYPATRHTVDPDRHIERVTELQELFLTRVGLDIGKVWVADDGAAVAVWTTPESVEAGAVFAEIGPRMAELSGSRLAAQQQMEGLLAPHRPKEPAWFLATVGVSPDHQGKGLGSAVVLPGVEAAERAGVPAFLETSAPRNLPFYERLGFTVTADVEVPEGPRTWCMTRKPGA
modifications: Synthetic Immune Receptor (SIR)
B3: 082317-G04 (protein)
chain: MALPVTALLLPLALLLHAARPLEGKPIPNPLLGLDSTGSGEDLKNVFPPEVAVFEPSKAEIAHTQKATLVCLATGFYPDHVELSWWVNGKEVHSGVCTDPQPLKEQPALNDSRYCLSSRLRVSATFWQNPRNHFRCQVQFYGLSENDEWTQDRAKPVTQIVSAEAWGRADCGITSASYHQGVLSATILYEILLGKATLYAVLVSALVLMAMVKRKDSRGRAKRSGSGATNFSLLKQAGDVEENPGPTSMALPVTALLLPLALLLHAARPQIVLTQSPAIMSASPGEKVTITCSASSSVSYMHWFQQKPGTSPKLWIYSTSNLASGVPARFSGSGSGTSYSLTISRMEAEDAATYYCQQRSSYPPTFGGGTKLEIKGGGGSGGGGSGGGGSQVQLQQSGAELMKPGASVKISCKATGYTFSSYWIEWVKQRPGHGLEWIGEILPGSGSTNYNEKFKGKATFTADTSSNTAYMQLSSLTSEDSAVYYCARYDYPWFAYWGQGTLVTVSATREQKLISEEDGSGIQNPDPAVYQLRDSKSSDKSVCLFTDFDSQTNVSQSKDSDVYITDKCVLDMRSMDFKSNSAVAWSNKSDFACANAFNNSIIPEDTFFPSSDVPCDVKLVEKSFETDTNLNFQNLSVIGFRILLLKVAGFNLLMTLRLWSSRAKRSGSGVKQTLNFDLLKLAGDVESNPGPSRGHMTEYKPTVRLATRDDVPRAVRTLAAAFADYPATRHTVDPDRHIERVTELQELFLTRVGLDIGKVWVADDGAAVAVWTTPESVEAGAVFAEIGPRMAELSGSRLAAQQQMEGLLAPHRPKEPAWFLATVGVSPDHQGKGLGSAVVLPGVEAAERAGVPAFLETSAPRNLPFYERLGFTVTADVEVPEGPRTWCMTRKPGA
B4: 110116-H02 (protein)
chain: MALPVTALLLPLALLLHAARPLEQKLISEEDLGSGDRPDPAVYQLRDSKSSDKSVCLFTDFDSQTNVSQSKDSDVYITDKCVLDMRSMDFKSNSAVAWSNKSDFACANAFNNSIIPEDTFFPSPESSCDVKLVEKSFETDTNLNFQNLSVIGFRILLLKVAGFNLLMTLRLWSSSSRAKRSGSGVKQTLNFDLLKLAGDVESNPGPTSMALPVTALLLPLALLLHAARPDIQMTQSTSSLSASLGDRVTISCSASQGINNYLNWYQQKPDGTVELLIYYTSTLQSGVPSRFSGSGSGTDYSLTISNLEPEDIGTYYCQQYSKLPRTFGGGTKLEIKGGGGSGGGGSGGGGSQVQLQQSGSELMMPGASVKISCKATGYTFSNYWIEWVKQRPGHGLEWIGEILPGTGRTIYNEKFKGKATFTADISSNTVQMQLSSLTSEDSAVYYCARRDYYGNFYYAMDYWGQGTSVTVSSTRGKPIPNPLLGLDSTGSGEDLKNVFPPEVAVFEPSEAEISHTQKATLVCLATGFYPDHVELSWWVNGKEVHSGVCTDPQPLKEQPALNDSRYCLSSRLRVSATFWQNPRNHFRCQVQFYGLSENDEWTQDRAKPVTQIVSAEAWGRADCGFTSESYQQGVLSATILYEILLGKATLYAVLVSALVLMAMVKRKDSRGRAKRSGSGATNFSLLKQAGDVEENPGPSRGHMTEYKPTVRLATRDDVPRAVRTLAAAFADYPATRHTVDPDRHIERVTELQELFLTRVGLDIGKVWVADDGAAVAVWTTPESVEAGAVFAEIGPRMAELSGSRLAAQQQMEGLLAPHRPKEPAWFLATVGVSPDHQGKGLGSAVVLPGVEAAERAGVPAFLETSAPRNLPFYERLGFTVTADVEVPEGPRTWCMTRKPGA
modifications: Synthetic Immune Receptor (SIR)
B5: 012517-M12 (protein)
chain: MALPVTALLLPLALLLHAARPLEGKPIPNPLLGLDSTGSGEDLKNVFPPEVAVFEPSKAEIAHTQKATLVCLATGFYPDHVELSWWVNGKEVHSGVCTDPQPLKEQPALNDSRYCLSSRLRVSATFWQNPRNHFRCQVQFYGLSENDEWTQDRAKPVTQIVSAEAWGRADCGITSASYHQGVLSATILYEILLGKATLYAVLVSALVLMAMVKRKDSRGRAKRSGSGATNFSLLKQAGDVEENPGPTSMALPVTALLLPLALLLHAARPDVLMTQTPVSLPVSLGGQVSISCRSSQSLVHSDGDTYLHWYLQKPGQSPQLLIYRVSNRFSGVPDRFSGSGSGTDFTLKISRVEPEDLGLYYCLQTTHFPPWTFGGGTKLEMKGGGGSGGGGSGGGGSQVQLQQSGPELRRPGSSVRLSCKASGYRIKDFLIHWIKNRPEHGLEWIGWIDPEDGETKYAQKFQTKATLTADTSSNTAYMQLSSLTSEDTATYFCARWGDVYYGLMRGHVMDAWGQGTSVTVSSTREQKLISEEDGSGIQNPDPAVYQLRDSKSSDKSVCLFTDFDSQTNVSQSKDSDVYITDKCVLDMRSMDFKSNSAVAWSNKSDFACANAFNNSIIPEDTFFPSSDVPCDVKLVEKSFETDTNLNFQNLSVIGFRILLLKVAGFNLLMTLRLWSSRAKRSGSGVKQTLNFDLLKLAGDVESNPGPSRGHMTEYKPTVRLATRDDVPRAVRTLAAAFADYPATRHTVDPDRHIERVTELQELFLTRVGLDIGKVWVADDGAAVAVWTTPESVEAGAVFAEIGPRMAELSGSRLAAQQQMEGLLAPHRPKEPAWFLATVGVSPDHQGKGLGSAVVLPGVEAAERAGVPAFLETSAPRNLPFYERLGFTVTADVEVPEGPRTWCMTRKPGA
B6: 083116-F05 (protein)
chain: MALPVTALLLPLALLLHAARPLEGKPIPNPLLGLDSTGSGEDLKNVFPPEVAVFEPSKAEIAHTQKATLVCLATGFYPDHVELSWWVNGKEVHSGVCTDPQPLKEQPALNDSRYCLSSRLRVSATFWQNPRNHFRCQVQFYGLSENDEWTQDRAKPVTQIVSAEAWGRADCGITSASYHQGVLSATILYEILLGKATLYAVLVSALVLMAMVKRKDSRGRAKRSGSGATNFSLLKQAGDVEENPGPTSMALPVTALLLPLALLLHAARPDIQMTQSTSSLSASLGDRVTISCSASQGINNYLNWYQQKPDGTVELLIYYTSTLQSGVPSRFSGSGSGTDYSLTISNLEPEDIGTYYCQQYSKLPRTFGGGTKLEIKGGGGSGGGGSGGGGSQVQLQQSGSELMMPGASVKISCKATGYTFSNYWIEWVKQRPGHGLEWIGEILPGTGRTIYNEKFKGKATFTADISSNTVQMQLSSLTSEDSAVYYCARRDYYGNFYYAMDYWGQGTSVTVSSTREQKLISEEDLGSGTPFPSLAPPIMLLVDGKQQMVVVCLVLDVAPPGLDSPIWFSAGNGSALDAFTYGPSPATDGTWTNLAHLSLPSEELASWEPLVCHTGPGAEGHSRSTQPMHLSGEASTARTCPQEPLRGTPGGALWLGVLRLLLFKLLLFDLLLTCSCLCDPAGPLPSPATTTRLRALGSHRLHPATETGGREATSSPRPQPRDRRWGDTPPGRKPGSPVRAKRSGSGVKQTLNFDLLKLAGDVESNPGPSRSRGHMTEYKPTVRLATRDDVPRAVRTLAAAFADYPATRHTVDPDRHIERVTELQELFLTRVGLDIGKVWVADDGAAVAVWTTPESVEAGAVFAEIGPRMAELSGSRLAAQQQMEGLLAPHRPKEPAWFLATVGVSPDHQGKGLGSAVVLPGVEAAERAGVPAFLETSAPRNLPFYERLGFTVTADVEVPEGPRTWCMTRKPGA
modifications: Polynucleotide encoding a Synthetic Immune Receptor (SIR)

Tested on: target antigen-expressing cell line
Experiment: Jurkat NFAT-GFP assay, coculture with target cell lines expressing the respective target antigen (summary Table 10A)
Assay type: cell-based, human
Set-up: key: The signs +/−, +, 2+ etc. after the name of the cell lines indicate the relative degree of positivity on the Jurkat-NFAT-GFP assay as measured by the % GFP positive cells; +: relative degree of positivity on the Jurkat-NFAT-GFP assay as measured by the % GFP positive cells; 2+: relative degree of positivity on the Jurkat-NFAT-GFP assay as measured by the % GFP positive cells
Method in brief: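 Jurkat cells carrying an NFAT-driven GFP reporter and lentivirally expressing a SIR were cocultured with antigen-bearing target cells (E:T ~1:2) for about 4–18 h. GFP induction read by flow cytometry as % GFP+ cells, scored positive and graded (+/−, +, 2+) against parental Jurkat-NFAT-GFP cells.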

| Molecule | NFAT-GFP ASSAY Positive Cell lines (coculture with L363 cells) | NFAT-GFP ASSAY Positive Cell lines (coculture with U266 cells) | further results |
| --- | --- | --- | --- |
| B1 | – | – | NFAT-GFP ASSAY Positive Cell lines: L363 (SIR-expressing Jurkat-NFAT-GFP cells cocultured with L363, relative % GFP positive cells): L363 (+/−), U266; NFAT-GFP ASSAY Positive Cell lines: U266 (SIR-expressing Jurkat-NFAT-GFP cells cocultured with U266, relative % GFP positive cells): (+/−) |
| B2 | L363 (+), U266 (+) | L363 (+), U266 (+) | – |
| B3 | – | – | NFAT-GFP ASSAY Positive Cell lines (coculture with L428 cells): L428 (+/−) |
| B4 | L363 (+/−), U266 | (+) | – |
| B5 | – | – | NFAT-GFP ASSAY Positive Cell lines: L428 (SIR-expressing Jurkat-NFAT-GFP cells cocultured with L428, relative % GFP positive cells): L428 (+) |
| B6 | – | U266 (+/−) | – |
